Drawing on paper PMC7255693 (2020), this text covers Kd for 2 molecules.

Assay [1] has as its target T1, CapZ peptide (TAMRA-TRTK) 265-276 (Homo sapiens, UniProt P52907, not fully specified).
T1 chain: {TAMRA}-TRTKIDWNKILS-NH2
Description: fluorescence polarization titration.

Assay [2] concerns the target HDM4 peptide (TAMRA-HDM4 25-43) 25-43 (Homo sapiens), O15151.

B1: S100B (protein)
chain: SELEKAMVALIDVFHQYSGREGDKHKLKKSELKELINNELSHFLEEIKEQEVVDKVMETLDNDGDGECDFQEFMAFVAMVTTACHEFFEHE
As for B1, binding in assay [1] was put at a Kd of 130 nM.

B2: S100A1, P23297 (protein)
chain: MGSELETAMETLINVFHAHSGKEGDKYKLSKKELKELLQTELSGFLDAQKDVDAVDKVMKELDENGDGEVDFQEYVVLVAALTVACNNFFWENS
As to B2, in assay [2], the dissociation constant Kd (as a rule, a measure of binding affinity in units of concentration) is 3.67 µM.
